{"source": "patent US7026443", "key": {"HLA-B*0702 (human) [1]": {"target": "HLA-B*0702 (human)", "test": "competition with 125I-labeled standard probe peptide for purified HLA, gel filtration", "details": "for relative binding ratio: scale: ratio"}, "HLA-B*5401 (human) [2]": {"target": "HLA-B*5401 (human)", "test": "competition with 125I-labeled standard probe peptide for purified HLA, gel filtration", "details": "for relative binding ratio: scale: ratio"}, "HLA-B*5101 (human) [3]": {"target": "HLA-B*5101 (human)", "test": "competition with 125I-labeled standard probe peptide for purified HLA, gel filtration", "details": "for relative binding ratio: scale: ratio"}, "HLA-B*3501 (human) [4]": {"target": "HLA-B*3501 (human)", "test": "competition with 125I-labeled standard probe peptide for purified HLA, gel filtration", "details": "for relative binding ratio: scale: ratio"}, "HLA-B*5301 (human) [5]": {"target": "HLA-B*5301 (human)", "test": "competition with 125I-labeled standard probe peptide for purified HLA, gel filtration", "details": "for relative binding ratio: scale: ratio"}, "HLA-A*2402 (human) [6]": {"target": "HLA-A*2402 (human)", "test": "competition with 125I-labelled standard peptide for purified HLA, gel filtration"}, "HLA-B*0702 (human) [7]": {"target": "HLA-B*0702 (human)", "test": "competition with 125I-labeled standard peptide for purified HLA, gel filtration"}, "HLA-B*5401 (human) [8]": {"target": "HLA-B*5401 (human)", "test": "competition with 125I-labeled standard peptide for purified HLA, gel filtration"}, "HLA-B*5101 (human) [9]": {"target": "HLA-B*5101 (human)", "test": "competition with 125I-labeled standard peptide for purified HLA, gel filtration"}, "HLA-B*3501 (human) [10]": {"target": "HLA-B*3501 (human)", "test": "competition with 125I-labeled standard peptide for purified HLA, gel filtration"}, "HLA-B*5301 (human) [11]": {"target": "HLA-B*5301 (human)", "test": "competition with 125I-labeled standard peptide for purified HLA, gel filtration"}, "HLA-A*3301 (human)": {"target": "HLA-A*3301 (human)", "test": "competition with 125I-labelled standard peptide for purified HLA, gel filtration"}, "HLA-A*0301 (human) [12]": {"target": "HLA-A*0301 (human)", "test": "competition with 125I-labelled standard peptide for purified HLA, gel filtration"}, "HLA-A*6801 (human)": {"target": "HLA-A*6801 (human)", "test": "competition with 125I-labelled standard peptide for purified HLA, gel filtration"}, "HLA-A*1101 (human)": {"target": "HLA-A*1101 (human)", "test": "competition with 125I-labelled standard peptide for purified HLA, gel filtration"}, "[13]": {"target": "HLA-A*1101 (purified HLA class I molecule) (human)", "test": "competition with 125I-labelled standard peptide for purified HLA-A*1101, gel filtration"}, "HLA-A*0301 (human) [14]": {"target": "HLA-A*0301 (human)", "test": "competition with 125I-labeled standard probe peptide for purified HLA-A*0301, gel filtration"}, "HLA-A*2402 (human) [15]": {"target": "HLA-A*2402 (human)", "test": "competition with 125I-labelled standard peptide for purified HLA-A*2402, gel filtration"}, "HLA-A*2402 (human) [16]": {"target": "HLA-A*2402 (human)", "test": "competition with 125I-labelled standard probe peptide for purified HLA-A*2402, gel filtration"}, "HLA-B*5101 (human) [17]": {"target": "HLA-B*5101 (human)"}, "HLA-B*3501 (human) [18]": {"target": "HLA-B*3501 (human)"}, "HLA-B*5301 (human) [19]": {"target": "HLA-B*5301 (human)"}, "[20]": {"target": "HLA-A*0201 (purified HLA class I molecule) (human)"}, "[21]": {"details": "remark: other sources report otherwise"}}, "note": "Where two headings read alike, the source gives them in different places."}
{"binder": "NPYAVCDKCL (modifications not checked)", "note": "[HPV16 E6 65 …]", "values": [{"measurement": "relative binding ratio", "setting": "HLA-B*0702 (human) [1]", "result": 0.0001}, {"measurement": "relative binding ratio", "setting": "HLA-B*5401 (human) [2]", "result": 0.0001}, {"measurement": "relative binding ratio", "setting": "HLA-B*5101 (human) [3]", "result": 0.0001}, {"measurement": "relative binding ratio", "setting": "HLA-B*3501 (human) [4]", "result": 0.0001}, {"measurement": "relative binding ratio", "setting": "HLA-B*5301 (human) [5]", "result": 0.0001}]}
{"binder": "VFEFAFKDLF (modifications not checked)", "note": "[HPV18 E6 position 44, 10-mer …]", "values": [{"measurement": "binding affinity ratio (IC50 of standard peptide / IC50 of test peptide)", "setting": "HLA-A*2402 (human) [6]", "result": 0.036}]}
{"binder": "CMCCKCEARI (modifications not checked)", "note": "[HPV18 E7 position 63, 10-mer …]", "values": [{"measurement": "binding affinity ratio (IC50 of standard peptide / IC50 of test peptide)", "setting": "HLA-A*2402 (human) [6]", "result": 0.0001}]}
{"binder": "WPYLHNRLV (modifications not checked)", "note": "[HPV16 E1 576 …]", "values": [{"measurement": "binding affinity ratio (IC50 of standard peptide / IC50 of test peptide)", "setting": "HLA-B*0702 (human) [7]", "result": 0.052}, {"measurement": "binding affinity ratio (IC50 of standard peptide / IC50 of test peptide)", "setting": "HLA-B*5401 (human) [8]", "result": 0.18}, {"measurement": "binding affinity ratio (IC50 of standard peptide / IC50 of test peptide)", "setting": "HLA-B*5101 (human) [9]", "result": 0.11}, {"measurement": "binding affinity ratio (IC50 of standard peptide / IC50 of test peptide)", "setting": "HLA-B*3501 (human) [10]", "result": 0.0003}, {"measurement": "binding affinity ratio (IC50 of standard peptide / IC50 of test peptide)", "setting": "HLA-B*5301 (human) [11]", "result": 0.0002}]}
{"binder": "TTLEQQYNK (modifications not checked)", "note": "[HPV16 E6 peptide …]", "values": [{"measurement": "binding affinity ratio (IC50 of standard peptide / IC50 of test peptide)", "setting": "HLA-A*3301 (human)", "result": 0.066}, {"measurement": "binding affinity ratio (IC50 of standard peptide / IC50 of test peptide)", "setting": "HLA-A*0301 (human) [12]", "result": 0.01}, {"measurement": "binding affinity ratio (IC50 of standard peptide / IC50 of test peptide)", "setting": "HLA-A*6801 (human)", "result": 0.3}, {"measurement": "binding affinity ratio (IC50 of standard peptide / IC50 of test peptide)", "setting": "HLA-A*1101 (human)", "result": 0.29}]}
{"binder": "DPQERPRKL (modifications not checked)", "note": "[HPV16 E6 11 …]", "values": [{"measurement": "binding affinity ratio (IC50 of standard peptide / IC50 of test peptide)", "setting": "HLA-B*0702 (human) [7]", "result": 0.0001}, {"measurement": "binding affinity ratio (IC50 of standard peptide / IC50 of test peptide)", "setting": "HLA-B*5401 (human) [8]", "result": 0.0002}, {"measurement": "binding affinity ratio (IC50 of standard peptide / IC50 of test peptide)", "setting": "HLA-B*5101 (human) [9]", "result": 0.0001}, {"measurement": "binding affinity ratio (IC50 of standard peptide / IC50 of test peptide)", "setting": "HLA-B*3501 (human) [10]", "result": 0.0001}, {"measurement": "binding affinity ratio (IC50 of standard peptide / IC50 of test peptide)", "setting": "HLA-B*5301 (human) [11]", "result": 0.0001}]}
{"binder": "SIPHAACHK (modifications not checked)", "note": "[HPV18 E6 59-67 peptide …]", "values": [{"measurement": "relative binding ratio (IC50 of standard peptide / IC50 of test peptide)", "setting": "[13]", "result": 0.12}]}
{"binder": "EPDRAHYNIV (modifications not checked)", "note": "[HPV16 E7 46 …]", "values": [{"measurement": "relative binding ratio", "setting": "HLA-B*0702 (human) [1]; [21]", "result": 0.0001}, {"measurement": "relative binding ratio", "setting": "HLA-B*5401 (human) [2]; [21]", "result": 0.0001}, {"measurement": "relative binding ratio", "setting": "HLA-B*5101 (human) [3]; [21]", "result": 0.0001}, {"measurement": "relative binding ratio", "setting": "HLA-B*3501 (human) [4]; [21]", "result": 0.0001}, {"measurement": "relative binding ratio", "setting": "HLA-B*5301 (human) [5]; [21]", "result": 0.0001}]}
{"binder": "WLQPLADAK (modifications not checked)", "note": "[HPV31 E1 489 peptide … (SEQ ID NO: 34685)]", "values": [{"measurement": "relative binding ratio (IC50 of standard peptide / IC50 of test peptide)", "setting": "HLA-A*0301 (human) [14]", "result": 0.0005}]}
{"binder": "QYNKPLCDLL (modifications not checked)", "values": [{"measurement": "relative binding ratio (IC50 of standard peptide / IC50 of test peptide) (ratio to standard peptide)", "setting": "HLA-A*2402 (human) [15]", "result": 0.0015}, {"measurement": "relative binding ratio (IC50 of standard peptide / IC50 of test peptide)", "setting": "HLA-A*2402 (human) [16]", "result": 0.0015}]}
{"binder": "QPPKLRSSV (modifications not checked)", "note": "[HPV18 E1 315 peptide …]", "values": [{"measurement": "binding affinity ratio (IC50 of standard peptide / IC50 of test peptide)", "setting": "HLA-B*5101 (human) [17]", "result": 0.0002}, {"measurement": "binding affinity ratio (IC50 of standard peptide / IC50 of test peptide)", "setting": "HLA-B*3501 (human) [18]", "result": 0.0003}, {"measurement": "binding affinity ratio (IC50 of standard peptide / IC50 of test peptide)", "setting": "HLA-B*5301 (human) [19]", "result": 0.0002}]}
{"binder": "RARQERLQR (modifications not checked)", "note": "[HPV18 E6 144-152 peptide …]", "values": [{"measurement": "relative binding ratio (IC50 of standard peptide / IC50 of test peptide)", "setting": "[13]", "result": 0.0002}]}
{"binder": "VYCKTVLEL (modifications not checked)", "note": "[HPV18 E6 position 33, 9-mer …]", "values": [{"measurement": "binding affinity ratio (IC50 of standard peptide / IC50 of test peptide)", "setting": "HLA-A*2402 (human) [6]", "result": 0.022}]}
{"binder": "QYNKPLCDL (modifications not checked)", "values": [{"measurement": "relative binding ratio (IC50 of standard peptide / IC50 of test peptide) (ratio to standard peptide)", "setting": "HLA-A*2402 (human) [15]", "result": 0.0001}, {"measurement": "relative binding ratio (IC50 of standard peptide / IC50 of test peptide)", "setting": "HLA-A*2402 (human) [16]", "result": 0.0001}]}
{"binder": "ALYWYRTGI (modifications not checked)", "note": "[HPV45 E1 peptide … (position 311, 9 amino acids)]", "values": [{"measurement": "relative binding ratio (IC50 of standard peptide / IC50 of test peptide)", "setting": "[20]", "result": 0.0032}]}
{"binder": "SPLGERLEV (modifications not checked)", "note": "[HPV18 E1 97 peptide …]", "values": [{"measurement": "binding affinity ratio (IC50 of standard peptide / IC50 of test peptide)", "setting": "HLA-B*0702 (human) [1]", "result": 0.13}, {"measurement": "binding affinity ratio (IC50 of standard peptide / IC50 of test peptide)", "setting": "HLA-B*5401 (human) [2]", "result": 0.0011}, {"measurement": "binding affinity ratio (IC50 of standard peptide / IC50 of test peptide)", "setting": "HLA-B*5101 (human) [3]", "result": 0.0002}, {"measurement": "binding affinity ratio (IC50 of standard peptide / IC50 of test peptide)", "setting": "HLA-B*3501 (human) [4]", "result": 0.0003}, {"measurement": "binding affinity ratio (IC50 of standard peptide / IC50 of test peptide)", "setting": "HLA-B*5301 (human) [5]", "result": 0.0002}]}
